Columns and labels:
[1] = target: T1, LtrA, intron-encoded protein (IEP) of the Lactococcus lactis Ll.LtrB group II intron (Lactococcus lactis), P0A3U0; assay: AUC; sedimentation velocity of purified +A RNP at 7-14 ng/µl; 4°C; 28 000 rpm; 20 mM Tris pH 7.4, 200 mM KCl, 5 mM MgCl2; absorbance at 260 nm; SEDFIT; conditions: remark: other sources report otherwise
T1 chain: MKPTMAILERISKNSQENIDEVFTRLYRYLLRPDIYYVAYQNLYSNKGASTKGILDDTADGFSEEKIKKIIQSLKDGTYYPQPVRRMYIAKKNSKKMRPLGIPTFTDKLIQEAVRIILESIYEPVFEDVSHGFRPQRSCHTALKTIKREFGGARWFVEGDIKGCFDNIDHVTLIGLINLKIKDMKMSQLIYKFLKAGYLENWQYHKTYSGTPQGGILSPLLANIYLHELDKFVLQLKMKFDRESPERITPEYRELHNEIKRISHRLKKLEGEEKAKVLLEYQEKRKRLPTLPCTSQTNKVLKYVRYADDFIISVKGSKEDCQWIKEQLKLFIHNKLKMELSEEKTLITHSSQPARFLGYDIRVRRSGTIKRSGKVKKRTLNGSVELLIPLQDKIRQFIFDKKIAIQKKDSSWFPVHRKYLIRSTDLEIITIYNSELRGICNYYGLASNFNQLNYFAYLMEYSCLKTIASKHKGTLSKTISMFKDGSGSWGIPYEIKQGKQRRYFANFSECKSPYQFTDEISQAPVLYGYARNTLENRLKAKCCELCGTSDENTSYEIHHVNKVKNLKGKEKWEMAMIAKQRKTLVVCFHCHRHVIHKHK

[2] = target: T1, LtrA, intron-encoded protein (IEP) of …; assay: SEC-MALS; purified +A RNP (LtrA with 902 nt intron lariat RNA) on Superdex 200 10/300 GL; 20 mM Tris pH 7.4, 200 mM KCl, 5 mM MgCl2; room temperature; mass-averaged dn/dc 0.182 ml/g; conditions: remark: other sources report otherwise

B1: LtrA, intron-encoded protein (IEP) of the Lactococcus lactis Ll.LtrB group II intron, P0A3U0 1-599 (natural protein)
chain: T1 chain
- stoichiometry N [1]: 2
- stoichiometry N [2]: 2

— article PMC4005650
